The values that follow come from patent US20200270359A1 (Genmab, published 2020).

Where a chain is given by its changes, count along the chain named. Names and notes keep the numbering of the source.

T1: human (Homo sapiens) CD37 (human (Homo sapiens), UniProt P11049 1-281)
T1 construct: Full-length protein on cells: endogenous on Daudi cells, Raji cells and B cells in human blood; also called Leukocyte Antigen CD37; GP52-40
T1 sequence: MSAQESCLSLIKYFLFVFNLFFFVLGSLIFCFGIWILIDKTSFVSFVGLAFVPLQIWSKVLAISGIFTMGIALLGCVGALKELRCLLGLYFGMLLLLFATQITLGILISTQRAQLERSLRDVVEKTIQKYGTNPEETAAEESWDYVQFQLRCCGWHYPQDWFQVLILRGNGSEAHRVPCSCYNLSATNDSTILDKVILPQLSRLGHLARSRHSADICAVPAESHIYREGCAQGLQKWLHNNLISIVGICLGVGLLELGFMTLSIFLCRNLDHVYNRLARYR

T2: cynomolgus monkey (Macaca fascicularis) CD37 (cynomolgus monkey (Macaca fascicularis), UniProt P11049 1-281 (human entry))
T2 construct: also called mfCD37; Cynomolgus CD37
T2 chain: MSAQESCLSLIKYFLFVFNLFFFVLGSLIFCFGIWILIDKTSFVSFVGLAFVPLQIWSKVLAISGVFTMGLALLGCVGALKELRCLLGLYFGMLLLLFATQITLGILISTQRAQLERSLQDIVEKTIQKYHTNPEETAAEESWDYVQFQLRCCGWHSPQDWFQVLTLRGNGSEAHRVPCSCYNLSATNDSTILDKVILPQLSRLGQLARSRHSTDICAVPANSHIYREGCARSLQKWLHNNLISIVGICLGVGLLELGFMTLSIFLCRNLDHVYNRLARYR

B1: IgG1-005-H1L2-E430G (antibody)
heavy: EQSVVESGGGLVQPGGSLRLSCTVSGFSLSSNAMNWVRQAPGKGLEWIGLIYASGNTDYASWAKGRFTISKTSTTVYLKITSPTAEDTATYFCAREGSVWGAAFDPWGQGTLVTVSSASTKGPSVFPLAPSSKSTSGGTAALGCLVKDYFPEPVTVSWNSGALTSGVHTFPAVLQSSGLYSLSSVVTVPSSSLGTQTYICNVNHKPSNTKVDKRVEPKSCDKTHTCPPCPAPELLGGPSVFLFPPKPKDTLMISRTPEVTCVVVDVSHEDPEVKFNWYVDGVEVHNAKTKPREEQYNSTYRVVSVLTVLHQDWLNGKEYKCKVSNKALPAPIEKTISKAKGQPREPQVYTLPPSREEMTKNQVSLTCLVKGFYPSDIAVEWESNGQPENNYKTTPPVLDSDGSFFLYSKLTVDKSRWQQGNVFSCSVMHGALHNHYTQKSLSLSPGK
light: AYDMTQSPSSVSASVGDRVTITCQASQSISNWLAWYQQKPGKAPKQLIYAASTLASGVPSRFKGSGSGTDFTLTISSLQPEDFATYYCQQGYSNSNIDNTFGGGTKVEIKRTVAAPSVFIFPPSDEQLKSGTASVVCLLNNFYPREAKVQWKVDNALQSGNSQESVTEQDSKDSTYSLSSTLTLSKADYEKHKVYACEVTHQGLSSPVTKSFNRGEC
notes: IgG1,kappa with E430G (EU numbering)
B2: IgG1-005-H1L2 (antibody)
heavy: not shown
light: B1 light
notes: Humanized, IgG1,kappa
B3: IgG1-004-H5L2 (antibody)
heavy: not shown
light: AQVLTQSPSPLSASVGDRVTITCQASQSVYNSQNLAWYQQKPGKAPKLLIYEASKLASGVPSRFKGSGSGTEFTLTISSLQPDDFATYYCQGEFSCISADCTAFGGGTKVEIKRTVAAPSVFIFPPSDEQLKSGTASVVCLLNNFYPREAKVQWKVDNALQSGNSQESVTEQDSKDSTYSLSSTLTLSKADYEKHKVYACEVTHQGLSSPVTKSFNRGEC
B4: IgG1-004-H5L2-E430G (antibody)
heavy: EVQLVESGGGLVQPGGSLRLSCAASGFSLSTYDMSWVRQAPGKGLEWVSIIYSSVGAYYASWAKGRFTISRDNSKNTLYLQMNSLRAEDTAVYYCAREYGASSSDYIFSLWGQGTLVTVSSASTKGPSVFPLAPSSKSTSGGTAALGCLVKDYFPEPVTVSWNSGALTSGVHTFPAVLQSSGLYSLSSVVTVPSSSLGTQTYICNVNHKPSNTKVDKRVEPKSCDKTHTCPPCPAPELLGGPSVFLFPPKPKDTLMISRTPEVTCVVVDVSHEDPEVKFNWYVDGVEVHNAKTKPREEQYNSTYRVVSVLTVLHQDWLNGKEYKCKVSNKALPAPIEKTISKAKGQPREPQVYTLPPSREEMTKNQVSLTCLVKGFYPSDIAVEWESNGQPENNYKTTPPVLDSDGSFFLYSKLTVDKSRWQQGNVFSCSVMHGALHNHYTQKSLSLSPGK
light: B3 light
notes: as for B1
B5: IgG1-010-H5L2 (antibody)
heavy: not shown
light: AYDMTQSPSTLSASVGDRVTITCQASQNIIDYLAWYQQKPGKAPKLLIHKASTLASGVPSRFKGSGSGTEFTLTISSLQPDDFATYYCQQGYSNSNIDNTFGGGTKVEIKRTVAAPSVFIFPPSDEQLKSGTASVVCLLNNFYPREAKVQWKVDNALQSGNSQESVTEQDSKDSTYSLSSTLTLSKADYEKHKVYACEVTHQGLSSPVTKSFNRGEC
notes: Humanized, IgG1,kappa
B6: IgG1-010-H5L2-E430G (antibody)
heavy: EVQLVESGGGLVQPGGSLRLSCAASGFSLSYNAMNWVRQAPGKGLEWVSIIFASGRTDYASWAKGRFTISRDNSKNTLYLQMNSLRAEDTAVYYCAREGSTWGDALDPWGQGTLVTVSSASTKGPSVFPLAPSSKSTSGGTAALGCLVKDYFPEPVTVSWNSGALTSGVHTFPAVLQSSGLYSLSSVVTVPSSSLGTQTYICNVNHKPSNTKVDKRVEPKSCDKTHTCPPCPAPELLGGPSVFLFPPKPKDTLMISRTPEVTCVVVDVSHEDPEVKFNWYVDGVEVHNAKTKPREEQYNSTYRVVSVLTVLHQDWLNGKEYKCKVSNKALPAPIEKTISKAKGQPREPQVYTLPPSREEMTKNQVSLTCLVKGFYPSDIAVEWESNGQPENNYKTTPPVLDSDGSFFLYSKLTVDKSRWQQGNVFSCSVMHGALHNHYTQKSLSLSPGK
light: B5 light
notes: as for B1
B7: IgG1-016-H5L2-E430G (antibody)
heavy: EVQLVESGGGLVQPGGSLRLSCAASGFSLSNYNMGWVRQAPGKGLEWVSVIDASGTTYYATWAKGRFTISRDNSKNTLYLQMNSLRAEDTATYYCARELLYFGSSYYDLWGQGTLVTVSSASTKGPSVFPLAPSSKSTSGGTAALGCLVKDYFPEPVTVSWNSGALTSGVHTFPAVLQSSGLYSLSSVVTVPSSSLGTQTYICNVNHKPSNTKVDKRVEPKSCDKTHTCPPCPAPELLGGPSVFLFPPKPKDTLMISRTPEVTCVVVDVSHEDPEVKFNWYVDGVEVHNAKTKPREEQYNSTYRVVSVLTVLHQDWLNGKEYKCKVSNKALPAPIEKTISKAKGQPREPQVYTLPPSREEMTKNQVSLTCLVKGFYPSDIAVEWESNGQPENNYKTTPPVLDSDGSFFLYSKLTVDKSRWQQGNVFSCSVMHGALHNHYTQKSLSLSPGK
light: DVVMTQSPSTLSASVGDRVTITCQASQNIDSNLAWYQQKPGKAPKFLIYYASNLPFGVPSRFKGSGSGTEFTLTISSLQPDDFATYYCQCADVGSTYVAAFGGGTKVEIKRTVAAPSVFIFPPSDEQLKSGTASVVCLLNNFYPREAKVQWKVDNALQSGNSQESVTEQDSKDSTYSLSSTLTLSKADYEKHKVYACEVTHQGLSSPVTKSFNRGEC
notes: as for B1
B8: IgG1-016-H5L2-F405L-E430G (antibody)
heavy: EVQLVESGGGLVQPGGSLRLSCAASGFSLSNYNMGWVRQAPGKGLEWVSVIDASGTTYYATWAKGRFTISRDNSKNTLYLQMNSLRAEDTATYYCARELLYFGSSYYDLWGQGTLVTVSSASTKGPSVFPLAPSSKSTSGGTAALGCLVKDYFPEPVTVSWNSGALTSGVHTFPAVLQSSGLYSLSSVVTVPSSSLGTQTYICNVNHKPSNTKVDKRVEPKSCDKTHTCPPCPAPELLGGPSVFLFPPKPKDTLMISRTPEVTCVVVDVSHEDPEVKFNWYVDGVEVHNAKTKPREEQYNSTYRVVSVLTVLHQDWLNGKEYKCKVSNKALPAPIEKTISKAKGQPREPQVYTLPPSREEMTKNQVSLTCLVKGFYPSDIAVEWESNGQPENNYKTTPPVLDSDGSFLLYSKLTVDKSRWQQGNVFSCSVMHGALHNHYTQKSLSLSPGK
light: B7 light
notes: IgG1,kappa with F405L and E430G (EU numbering)
B9: IgG1-016-H5L2-LC90S-F405L-E430G (antibody, V domains shown)
VH: EVQLVESGGGLVQPGGSLRLSCAASGFSLSNYNMGWVRQAPGKGLEWVSVIDASGTTYYATWAKGRFTISRDNSKNTLYLQMNSLRAEDTATYYCARELLYFGSSYYDLWGQGTLVTVSS
VL: DVVMTQSPSTLSASVGDRVTITCQASQNIDSNLAWYQQKPGKAPKFLIYYASNLPFGVPSRFKGSGSGTEFTLTISSLQPDDFATYYCQSADVGSTYVAAFGGGTKVEIKR
notes: IgG1,kappa; light chain C90S, heavy chain F405L and E430G (EU numbering)
B10: IgG1-016-H5L2 (antibody)
heavy: not shown
light: B7 light
notes: Humanized, IgG1,kappa
B11: IgG1-G28.1 (antibody)
heavy: not shown
light: DIQMTQSPASLSASVGETVTITCRTSENVYSYLAWYQQKQGKSPQLLVSFAKTLAEGVPSRFSGSGSGTQFSLKISSLQPEDSGSYFCQHHSDNPWTFGGGTELEIKRTVAAPSVFIFPPSDEQLKSGTASVVCLLNNFYPREAKVQWKVDNALQSGNSQESVTEQDSKDSTYSLSSTLTLSKADYEKHKVYACEVTHQGLSSPVTKSFNRGEC
notes: IgG1,kappa
B12: IgG1-G28.1-E430G (antibody)
heavy: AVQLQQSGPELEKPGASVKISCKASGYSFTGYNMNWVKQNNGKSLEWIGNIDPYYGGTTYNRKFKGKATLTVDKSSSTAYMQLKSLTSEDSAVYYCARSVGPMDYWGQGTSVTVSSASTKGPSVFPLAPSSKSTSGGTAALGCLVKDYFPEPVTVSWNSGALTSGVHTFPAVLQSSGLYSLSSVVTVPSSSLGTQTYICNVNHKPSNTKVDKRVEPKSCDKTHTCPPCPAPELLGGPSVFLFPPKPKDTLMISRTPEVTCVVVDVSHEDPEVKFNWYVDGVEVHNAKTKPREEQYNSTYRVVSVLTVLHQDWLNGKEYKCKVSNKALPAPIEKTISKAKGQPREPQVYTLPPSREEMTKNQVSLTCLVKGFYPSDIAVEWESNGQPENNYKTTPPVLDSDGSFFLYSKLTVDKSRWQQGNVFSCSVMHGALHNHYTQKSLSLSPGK
light: B11 light
notes: as for B1
B13: IgG1-37.3 (antibody)
heavy: not shown
light: DIQMTQSPASLSVSVGETVTITCRASENIRSNLAWYQQKQGKSPQLLVNVATNLADGVPSRFSGSGSGTQYSLKINSLQSEDFGTYYCQHYWGTTWTFGGGTKLEIKRTVAAPSVFIFPPSDEQLKSGTASVVCLLNNFYPREAKVQWKVDNALQSGNSQESVTEQDSKDSTYSLSSTLTLSKADYEKHKVYACEVTHQGLSSPVTKSFNRGEC
notes: IgG1,kappa
B14: IgG1-37.3-E430G (antibody)
heavy: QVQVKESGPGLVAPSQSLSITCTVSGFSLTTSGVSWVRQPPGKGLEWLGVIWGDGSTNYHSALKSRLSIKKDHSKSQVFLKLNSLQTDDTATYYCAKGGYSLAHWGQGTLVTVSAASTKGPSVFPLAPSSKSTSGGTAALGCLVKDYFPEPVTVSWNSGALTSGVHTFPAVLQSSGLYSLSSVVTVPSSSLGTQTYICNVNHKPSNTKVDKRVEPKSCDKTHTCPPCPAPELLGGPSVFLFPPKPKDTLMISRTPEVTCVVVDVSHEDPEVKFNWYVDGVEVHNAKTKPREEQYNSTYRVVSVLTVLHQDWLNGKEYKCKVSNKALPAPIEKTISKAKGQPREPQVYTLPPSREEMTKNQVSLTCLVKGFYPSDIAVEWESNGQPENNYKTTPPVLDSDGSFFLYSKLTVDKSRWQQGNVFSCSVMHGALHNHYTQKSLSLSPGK
light: B13 light
notes: as for B1
B15: bsIgG1-016-H5L2-LC90S-F405L-E430Gx010-H5L2-K409R-E430G (bispecific antibody)
heavy 1: not shown
light 1: B7 light with C90S
heavy 2: not shown
light 2: B5 light

The first experiment addresses T1, human (Homo sapiens) CD37. The experiment is described as follows: flow cytometry on Daudi cells. How it is done:
(§1) Binding to cell surface expressed CD37 (Daudi cells, CHO cells expressing cynomolgus CD37) was determined by flow cytometry. Cells, resuspended in RPMI containing 0.2% BSA, were seeded at 100,000 cells/well in polystyrene 96 well round-bottom plates (Greiner bio-one Cat #650101) and centrifuged for 3 minutes at 300×g, 4° C. Serial dilutions (0.003-10 μg/mL final antibody concentration in 3.33× serial dilutions) of CD37 or control antibodies were added and cells were incubated for 30 minutes at 4° C. Plates were washed/centrifuged twice using FACS buffer (PBS/0.1% BSA/0.01% Na-Azide). Next, cells were incubated for 30 minutes at 4° C. with R-Phycoerythrin (PE)-conjugated goat-anti-human IgG F(ab′)2 (Jackson ImmunoResearch Laboratories, Inc., West Grove, Pa.; cat #: 109-116-098) diluted 1/100 in PBS/0.1% BSA/0.01% Na-Azide. Cells were washed/centrifuged twice using FACS buffer, resuspended in 30 μL FACS buffer and analyzed by determining mean fluorescent intensities using an Intellicyt iQue™ screener (Westburg). Binding curves were generated using non-linear regression (sigmoidal dose-response with variable slope) analyses within GraphPad Prism V6.04 software (GraphPad Software, Sand Diego, Calif., USA).
For B1, the binding result was “binds”.
On to B2, for which the binding result is listed as “binds”.
Same read-out and setting: to B3 belongs “binds”; to B4, “binds”; to B5, “binds”.
Take B6: the binding result is on record as “binds”.
The same measure, in the same setting: to B7 belongs “binds”.
The same measure, in the same setting: to B8 belongs “binds”; to B9, “binds”; to B10, “binds”.
As to B11, the binding result is reported as “binds”.
As for B12, the binding result was “binds”.
Turning to B13, the binding result is recorded as “binds”.
The same measure, in the same setting: to B14 belongs “binds”.

The target in a further experiment is T2, cynomolgus monkey (Macaca fascicularis) …. The experiment is described as follows: flow cytometry on CHO cells expressing cynomolgus monkey CD37. How it is done: as §1
Binding to CHO cells expressing cynomolgus monkey CD37 was determined by flow cytometry using a method as described above.
In the case of B1, the binding result was “binds”.
Turning to B4, the binding result is “binds”.
As to B6, the binding result is “binds”.
Same read-out and setting: as for B7, the entry is “binds”; as for B11, “no binding (tested: 0.003-10 µg/mL)”; as for B12, “no binding (tested: 0.003-10 µg/mL)”.

The target of a further experiment is T1, human (Homo sapiens) CD37. The experiment is described as follows: flow cytometry, A488-labeled antibody on B cells in human whole blood; average of 6 donors. The method, then: (§2) Cells were pelleted and washed twice in 150 μL FACS buffer and resuspended in 150 μL TO-PRO-3 (end concentration 0.2 μM; Molecular Probes, cat no. T3605). Samples were measured by flow cytometry using an LSRFortessa flow cytometer. Binding is expressed as geometric mean of A488 fluorescence intensity for viable TO-PRO-3⁻/CD14⁻/CD19⁺ B-cells (human) or viable TO-PRO-3⁻/CD14⁻/CD19+/CD20+ B-cells (cynomolgus monkey). Log-transformed data were analyzed using best-fit values of a non-linear dose-response fit in GraphPad PRISM.
Molecule B15 registered an EC50 of 0.85 µg/mL.

The next experiment concerns the target T2, cynomolgus monkey (Macaca fascicularis) …. Nature of the experiment: flow cytometry, A488-labeled antibody on B cells in cynomolgus monkey whole blood; average of 4 animals. The method, then: as §2
As to B15, it took 0.63 µg/mL to reach a half-maximal effect (EC50).
